Data reported in US20240116985A1 (published 2024).
Starred links: 1 amine or outer side, 2 acyl side, 3 side chain; linkers in the order of their positions; H or OH if unused. Positions of bridges follow the written chain, without caps; N, C: chain ends. Non-standard residues stand in square brackets, D forms with d. Primed or numbered codes have the meaning given here. *: point of attachment. (4CF3PhAc)GAbu = (S)-2-amino-4-(N-(carboxymethyl)-2-(4-(trifluoromethyl)phenyl)acetamido)butanoic acid, O=C(Cc1ccc(C(F)(F)F)cc1)N(CC[C@H](N[*:1])C(=O)[*:2])CC(=O)[*:3]; (MeMorphBz)GAbu = (S)-2-amino-4-(N-(carboxymethyl)-4-(morpholinomethyl)benzamido)butanoic acid, O=C(c1ccc(CN2CCOCC2)cc1)N(CC[C@H](N[*:1])C(=O)[*:2])CC(=O)[*:3]; (4AcMePip)GAbu = (S)-2-amino-4-(N-(carboxymethyl)-1-methylpiperidine-4-carboxamido)butanoic acid, CN1CCC(C(=O)N(CC[C@H](N[*:1])C(=O)[*:2])CC(=O)[*:3])CC1; PyrS2″ = (S)-3-amino-1-((pent-4-en-1-yloxy)carbonyl)pyrrolidine-3-carboxylic acid (stapling residue), C=CCCCOC(=O)N1CC[C@@](N[*:1])(C(=O)[*:2])C1; (Me2NPr)GAbu = (S)-2-amino-4-(N-(carboxymethyl)-3-(dimethylamino)propanamido)butanoic acid, CN(C)CCC(=O)N(CC[C@H](N[*:1])C(=O)[*:2])CC(=O)[*:3]; (MorphAc)GAbu = (S)-2-amino-4-(N-(carboxymethyl)-2-morpholinoacetamido)butanoic acid, O=C(CN1CCOCC1)N(CC[C@H](N[*:1])C(=O)[*:2])CC(=O)[*:3]; TfeGA = (S)-2-amino-3-((carboxymethyl)(2,2,2-trifluoroethyl)amino)propanoic acid, O=C([C@H](CN(CC(=O)[*:3])CC(F)(F)F)N[*:1])[*:2]; PyrS2 = (S)-3-amino-1-((pent-4-en-1-yloxy)carbonyl)pyrrolidine-3-carboxylic acid, C=CCCCOC(=O)N1CC[C@@](N[*:1])(C(=O)[*:2])C1; (Pic)GAbu = (S)-2-amino-4-(N-(carboxymethyl)picolinamido)butanoic acid, O=C(c1ccccn1)N(CC[C@H](N[*:1])C(=O)[*:2])CC(=O)[*:3]; B5(22) = 2-amino-2-(pent-4-en-1-yl)hept-6-enoic acid (two alkene side chains), C=CCCCC(CCCC=C)(N[*:1])C(=O)[*:2]; HypEs5 = (2R,4S)-4-(pent-4-enoyloxy)pyrrolidine-2-carboxylic acid, C=CCCC(=O)O[C@H]1C[C@H](C(=O)[*:2])N([*:1])C1; GAbu = (S)-2-amino-4-((carboxymethyl)amino)butanoic acid, O=C([C@H](CCNCC(=O)[*:3])N[*:1])[*:2]; B5(3) = 2,2-bis(4-pentenyl)glycine (stitching residue), C=CCCCC(CCCC=C)(N[*:1])C(=O)[*:2]; B5 = 2-amino-2-(pent-4-en-1-yl)hept-6-enoic acid, C=CCCCC(CCCC=C)(N[*:1])C(=O)[*:2]; Phenylacetyl(2,3,4,5,6-F5) = O=C(Cc1c(F)c(F)c(F)c(F)c1F)*; Benzoyl(2,3,4,5,6-F5) = O=C(c1c(F)c(F)c(F)c(F)c1F)*; Acetyl(4-Me-piperazin-1-yl) = CN1CCN(CC(=O)*)CC1; Phe(3-COOH) = N[C@@H](Cc1cccc(C(=O)O)c1)C(=O)O; Phe(3-F) = N[C@@H](Cc1cccc(F)c1)C(=O)O; Phe(4-F) = N[C@@H](Cc1ccc(F)cc1)C(=O)O; 1Nal = N[C@@H](Cc1cccc2ccccc12)C(=O)O; Bta = N[C@@H](Cc1csc2ccccc12)C(=O)O; αAllylPro = C=CC[C@@]1(C(=O)O)CCCN1; tBuAla = CC(C)(C)C[C@H](N)C(=O)O; 3Thi = N[C@@H](Cc1ccsc1)C(=O)O; Cit = NC(=O)NCCC[C@H](N)C(=O)O

B1: I-806 (peptide)
peptide: Ac-[αAllylPro]D[tBuAla][B5(3)]DDAAF[Cit][PyrS2″][3Thi][Bta]H-NH2
modifications: staple 1-4, 4-11
B2: I-794 (peptide)
peptide: Ac-[αAllylPro]D[tBuAla][B5]DDAAFN[PyrS2][1Nal][Bta]H-NH2
modifications: staple 1-4, 4-11
B3: I-805 (peptide)
peptide: Ac-[αAllylPro]D[tBuAla][B5(3)]DDAAF[Cit][PyrS2″][3Thi][Bta]Q-NH2
modifications: staple 1-4, 4-11
B4: I-2245 (peptide)
peptide: Ac-[αAllylPro]D[tBuAla][B5(22)]D[(4AcMePip)GAbu]AAFL[PyrS2][3Thi][Bta]Q-NH2
modifications: staple 1-4, 4-11
B5: I-2260 (peptide)
peptide: Ac-[αAllylPro]D[tBuAla][B5(3)]D[Phe(3-COOH)]AA[Phe(3-F)]L[PyrS2″][3Thi][Bta]A-NH2
modifications: staple 1-4, 4-11
B6: I-2248 (peptide)
peptide: Ac-[αAllylPro]D[tBuAla][B5(22)]D[(MeMorphBz)GAbu]AAFL[PyrS2][3Thi][Bta]Q-NH2
modifications: staple 1-4, 4-11
B7: I-2250 (peptide)
peptide: Ac-[αAllylPro]D[tBuAla][B5(22)]D[GAbu](Acetyl(4-Me-piperazin-1-yl))AAFL[PyrS2][3Thi][Bta]Q-NH2
modifications: staple 1-4, 4-11
B8: I-2262 (peptide)
peptide: Ac-[αAllylPro]D[tBuAla][B5(3)]D[Phe(3-COOH)]AA[Phe(4-F)]L[PyrS2″][3Thi][Bta]A-NH2
modifications: staple 1-4, 4-11
B9: I-2263 (peptide)
peptide: Ac-[αAllylPro]D[tBuAla][B5(3)]D[Phe(3-COOH)]AAFL[PyrS2″][Phe(4-F)][Bta]A-NH2
modifications: staple 1-4, 4-11
B10: I-2265 (peptide)
peptide: Ac-[HypEs5]D[tBuAla][B5(3)]D[TfeGA]AAFL[PyrS2″][3Thi][Bta]Q-NH2
modifications: staple 1-4, 4-11; also: staple double bonds reduced to -CH2-CH2-
B11: I-2251 (peptide)
peptide: Ac-[αAllylPro]D[tBuAla][B5(22)]D[GAbu](Phenylacetyl(2,3,4,5,6-F5))AAFL[PyrS2][3Thi][Bta]Q-NH2
modifications: staple 1-4, 4-11
B12: I-2259 (peptide)
peptide: Ac-[αAllylPro]D[tBuAla][B5(3)]D[Phe(3-COOH)]AAFF[PyrS2″][3Thi][Bta]A-NH2
modifications: staple 1-4, 4-11
B13: I-2249 (peptide)
peptide: Ac-[αAllylPro]D[tBuAla][B5(22)]D[(MorphAc)GAbu]AAFL[PyrS2][3Thi][Bta]Q-NH2
modifications: staple 1-4, 4-11
B14: I-2252 (peptide)
peptide: Ac-[αAllylPro]D[tBuAla][B5(22)]D[GAbu](Benzoyl(2,3,4,5,6-F5))AAFL[PyrS2][3Thi][Bta]Q-NH2
modifications: staple 1-4, 4-11
B15: I-2247 (peptide)
peptide: Ac-[αAllylPro]D[tBuAla][B5(22)]D[(Pic)GAbu]AAFL[PyrS2][3Thi][Bta]Q-NH2
modifications: staple 1-4, 4-11
B16: I-2246 (peptide)
peptide: Ac-[αAllylPro]D[tBuAla][B5(22)]D[(4CF3PhAc)GAbu]AAFL[PyrS2][3Thi][Bta]Q-NH2
modifications: staple 1-4, 4-11
B17: I-2261 (peptide)
peptide: Ac-[αAllylPro]D[tBuAla][B5(3)]D[Phe(3-COOH)]AAFL[PyrS2″][Phe(3-F)][Bta]A-NH2
modifications: staple 1-4, 4-11
B18: I-2264 (peptide)
peptide: Ac-[HypEs5]D[tBuAla][B5(3)]D[TfeGA]AAFL[PyrS2″][3Thi][Bta]Q-NH2
modifications: staple 1-4, 4-11
B19: I-2257 (peptide)
peptide: Ac-[αAllylPro]D[tBuAla][B5(3)]D[Phe(3-COOH)]AAFL[PyrS2″][3Thi][Bta]A-NH2
modifications: staple 1-4, 4-11
B20: I-2244 (peptide)
peptide: Ac-[αAllylPro]D[tBuAla][B5(22)]D[(Me2NPr)GAbu]AAFL[PyrS2][3Thi][Bta]Q-NH2
modifications: staple 1-4, 4-11

Molecular target: T1, B-cat-Halo (beta-catenin HaloTag construct expressed in HEK293 cells) (UniProt P35222 1-781)
T1 sequence (looked up): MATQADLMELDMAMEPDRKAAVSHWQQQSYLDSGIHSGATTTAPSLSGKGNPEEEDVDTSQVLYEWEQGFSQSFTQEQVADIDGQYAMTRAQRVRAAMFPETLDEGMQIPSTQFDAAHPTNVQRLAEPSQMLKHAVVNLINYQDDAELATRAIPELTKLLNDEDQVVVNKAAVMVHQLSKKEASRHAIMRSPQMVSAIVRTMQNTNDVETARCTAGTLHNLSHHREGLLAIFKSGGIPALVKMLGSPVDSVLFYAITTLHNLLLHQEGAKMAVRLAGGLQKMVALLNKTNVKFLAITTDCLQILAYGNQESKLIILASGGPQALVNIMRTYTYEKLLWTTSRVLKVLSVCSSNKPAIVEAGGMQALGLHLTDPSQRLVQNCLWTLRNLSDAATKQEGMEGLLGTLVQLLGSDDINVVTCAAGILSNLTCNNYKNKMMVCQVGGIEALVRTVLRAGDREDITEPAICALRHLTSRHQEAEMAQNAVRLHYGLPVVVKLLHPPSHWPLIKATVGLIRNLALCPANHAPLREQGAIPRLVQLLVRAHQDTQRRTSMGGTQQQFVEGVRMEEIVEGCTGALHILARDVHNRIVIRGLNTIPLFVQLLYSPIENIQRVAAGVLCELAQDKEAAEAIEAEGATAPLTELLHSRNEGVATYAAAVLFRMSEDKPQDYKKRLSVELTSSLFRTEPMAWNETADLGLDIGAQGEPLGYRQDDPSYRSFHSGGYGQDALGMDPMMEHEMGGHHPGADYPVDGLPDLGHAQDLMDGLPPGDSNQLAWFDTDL
Test: cell-based or functional assay

Binder	NanoBRET Abs IC50
B1	21.6 µM
B2	26.4 µM
B3	18.5 µM

Molecular target: T2, B-cat-Halo (UniProt P35222 1-781)
T2 sequence (looked up): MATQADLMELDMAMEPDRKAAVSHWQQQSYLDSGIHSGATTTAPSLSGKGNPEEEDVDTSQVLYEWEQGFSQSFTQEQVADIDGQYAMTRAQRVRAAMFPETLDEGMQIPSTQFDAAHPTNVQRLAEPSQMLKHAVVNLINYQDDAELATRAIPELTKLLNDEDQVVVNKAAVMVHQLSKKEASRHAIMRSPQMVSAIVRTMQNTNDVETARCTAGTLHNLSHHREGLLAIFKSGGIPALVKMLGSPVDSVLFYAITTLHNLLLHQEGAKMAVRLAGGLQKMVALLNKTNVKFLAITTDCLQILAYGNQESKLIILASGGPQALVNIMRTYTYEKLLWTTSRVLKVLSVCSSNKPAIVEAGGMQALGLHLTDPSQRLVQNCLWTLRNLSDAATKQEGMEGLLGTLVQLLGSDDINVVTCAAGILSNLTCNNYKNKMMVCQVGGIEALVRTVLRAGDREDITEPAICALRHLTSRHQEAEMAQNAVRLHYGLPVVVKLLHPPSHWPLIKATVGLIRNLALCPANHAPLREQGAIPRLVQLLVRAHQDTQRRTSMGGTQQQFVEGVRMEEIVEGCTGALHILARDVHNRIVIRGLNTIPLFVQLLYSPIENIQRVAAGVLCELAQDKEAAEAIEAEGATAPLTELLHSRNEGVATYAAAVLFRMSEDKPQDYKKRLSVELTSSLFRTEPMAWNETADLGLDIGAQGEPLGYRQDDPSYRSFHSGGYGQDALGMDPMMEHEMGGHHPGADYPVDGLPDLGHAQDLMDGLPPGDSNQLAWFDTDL
Test: cell-based or functional assay

Binder	NanoBRET Abs IC50
B4	> 20 µM
B5	3.1 µM
B6	21.5 µM
B7	36.2 µM
B8	3.7 µM
B9	4.3 µM
B10	> 20 µM
B11	6.4 µM
B12	4.3 µM
B13	42.2 µM
B14	17.5 µM
B15	5.9 µM
B16	12.9 µM
B17	6.4 µM
B18	25.5 µM
B19	2.9 µM
B20	27.4 µM
